Here are results for two substances from patent US20190352352A1.

Values joined by “and” are separate entries in the source; they are usually repeats but may differ in a detail not shown here. Equal values may be shown once.

Test [1] addresses thermolysin-WPIH-TG polymer digest (peptides released during simulated gastric and duodenal digestion). The test can be described thus: β-lactoglobulin-specific competitive ELISA kit, time course of in vitro digestion. A general note: An ELISA detects its analyte on a solid surface through an enzyme-linked reagent.
For test [2], the target named is native WPI digests (peptides released during simulated gastric and duodenal digestion of native WPI). The test is described as above.
The target in test [3] is TGase-polymerized native WPI (WPI-TG). The test can be described thus: β-lactoglobulin-specific competitive ELISA kit.
The target of test [4] is repolymerized tryptic WPI hydrolysate (tryptic-WPIH-TG). The test can be described thus: β-lactoglobulin-specific competitive ELISA kit.
The target of test [5] is thermolysin hydrolysate of WPI (thermolysin-WPIH). The test can be described thus: β-lactoglobulin-specific competitive ELISA kit.
Test [6] concerns the target chymotryptic hydrolysate of WPI (chymotryptic-WPIH). The test can be described thus: β-lactoglobulin-specific competitive ELISA kit.
Test [7] has as its target TG polymers of thermolysin WPI hydrolysate (thermolysin-WPIH-TG). The test can be described thus: β-lactoglobulin-specific competitive ELISA kit.
The target of test [8] is TG polymers of chymotryptic WPI hydrolysate (chymotryptic-WPIH-TG). The test can be described thus: β-lactoglobulin-specific competitive ELISA kit.
The target of test [9] is tryptic hydrolysate of WPI (tryptic-WPIH). The test can be described thus: β-lactoglobulin-specific competitive ELISA kit.
The target in test [10] is TGase-polymerized intact casein (CN-TG). The test can be described thus: casein-specific ELISA kit.

In the case of “antibody of the … β-lactoglobulin test kit (β-lactoglobulin-specific competitive ELISA kit, R-Biopharm AG)”, the immunoreactivity (%) is 5% and < 5% in test [1]; 5 to 20% in test [2]. For the same substance, the immunoreactivity (% of native WPI control) (% of native WPI control) was 78 in [3]; 29 to 31 in test [4]; 18 in [5]; 83 in test [6]; 6 in test [7]; 44 in test [8]. In [9], this substance gave an immunoreactivity (% of native WPI control) (% of native WPI control) of 29.

As for “antibody of the AgraQuant F.A.S.T Casein ELISA test kit (Romer Labs Inc.)”, the immunoreactivity (% of casein control) (% of casein control) in [10] worked out at 70.
